Experiment [1] concerns the target recombinant wild-type cardiac actin (WTRec-ACTC), as F-actin filaments (human) (UniProt P68032). Description: TIRF microscopy of labelled tropomyosin binding along actin filaments; rhodamine phalloidin-labelled ACTC filaments held on bovine ventricular HMM (0.5 mg/ml) on a nitrocellulose-coated coverslip; Alexa-Tm added while recording at 10 frames per second; fluorescence along a filament normalised from 1 to 100 percent; elongation rate = slope of the binding curve from 0 to 15 s.

For experiment [2] the target is unchanged. In words: co-sedimentation; 7 uM F-actin with 0.1 to 2 uM tropomyosin in 100 mM KCl, 5 mM MgCl2, 20 mM Tris pH 8, 1 h at 25 C; 100,000 rpm 20 min (TLA100); Tm in the pellet by SDS-PAGE densitometry, normalised 0-100; fit to specific binding with Hill slope.

“Alexa488-labeled tropomyosin (bovine ventricular tropomyosin modified on Cys-190) (from UniProt Q5KR49 1-284) (natural protein)”: the Elongation Rate in experiment [1] turned out to be 4.56 s⁻¹.
For orientation: Kd means the constant that tells how readily two partners part at equilibrium. For the substance “tropomyosin purified from bovine ventricular ether powder (from UniProt Q5KR49 1-284)”, in experiment [2], the Kd turned out to be 0.533 µM.

(Values after article PMC11652881.)
